From article PMC4866688, “Trypanosoma brucei DHFR-TS Revisited: Characterisation of a Bifunctional and Highly Unstable Recombinant Dihydrofolate Reductase-Thymidylate Synthase” (PLoS Neglected Tropical Diseases, 2016) come the findings set out here.

Broadly, the stoichiometry N is the number of molecules, sites or subunits per partner or assembly.

This series concerns the molecule itself. Put plainly: SEC; Superdex 200 column, Bio-Rad gel filtration standards; purified cleaved enzyme, DHFR activity and absorbance at 280 nm followed. In general terms: In gel filtration, larger molecules generally elute earlier.

B1: Trypanosoma brucei dihydrofolate reductase-thymidylate synthase, Tsf tag removed with TEV protease (enzyme, UniProt Q27783 1-527, looked up)
chain: MLSLTRILRKKIPVHELAGKISRPPLRPFSVVVASDEKGGIGDGGTIPWEIPEDMQYFRRVTTNLRGKNVKPSPSKRNAVVMGRKTWDSLPPKFRPLSNRLNVVLSRSATKEQLLAGIPDPIKRAEAANDVVAVNGGLEDALRMLVSKEHTSSIETVFCIGGGTIYKQALCAPCVNVLQAIHRTVVRPASNSCSVFFDIPAAGTKTPEGLELVRESITDERVSTGAGGKKYQFEKLVPRNSEEEQYLNLVGRIIDEGCTKCDRTGVGTRSLFGAQMRFSLRNNRLPLLTTKRVFWRGVCEELLWFLRGETNAKLLSDKGIHIWDGNGSRAFLDSRGLTDYDEMDLGPVYGFQWRHFGADYISCKVDSEGKGVDQIANIVKSLIENPDDRRMICTAWNPAALPRMALPPCHMMAQFYVSNGELSCMLYQRSCDMGLGVPFNIASYALLTFLMAKASGLRPGELVHTLGDAHVYSNHVEPCRKQLKRVPRPFPFIVFKQDKEFLEDFQESDIEVIDYSPYPVISMEMAV
notes: bifunctional dihydrofolate reductase-thymidylate synthase of Trypanosoma brucei strain 427; N-terminal DHFR domain (ends at Arg 239), linker, C-terminal TS domain; also called TbDHFR-TS; cleaved TbDHFR-TS; not shown: Tsf (E. coli elongation factor Ts), N-terminal, cleaved; His6, internal (between Tsf and the TEV site), cleaved
Turning to B1, the “stoichiometry N” value amounted to 2.
